Assay results published in patent CN115960237A.

Target: OXA-48酶抗原 (recombinant OXA-48 enzyme antigen) (UniProt Q6XEC0)
Assay: indirect ELISA, OXA-48 antigen coated at 100 ng per well, goat anti-rabbit IgG-HRP, OD450

Chain of UniProt Q6XEC0 (Q6XEC0 23-265 limits assumed): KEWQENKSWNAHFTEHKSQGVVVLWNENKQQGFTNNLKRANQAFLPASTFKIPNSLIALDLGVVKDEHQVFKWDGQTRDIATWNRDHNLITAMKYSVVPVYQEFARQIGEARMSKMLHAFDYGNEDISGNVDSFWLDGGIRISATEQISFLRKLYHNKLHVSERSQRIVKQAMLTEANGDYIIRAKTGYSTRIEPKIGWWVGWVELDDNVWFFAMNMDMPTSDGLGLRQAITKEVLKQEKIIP

B1: 第一单克隆抗体 (first anti-OXA-48 enzyme monoclonal antibody) (antibody, V domains shown)
VH: EVKLVESGGGLVQPGRSLRLSCATSGFTFADYSMTWVRQPPGKGLEWVGLIKRNAYGGTTEYAASVRGRFTISRDNSQSIAYLQMNTLRTEDTPAYYCLRGYSGYDWEGLDAFDVWGQGTMVTVSS
VL: DIVMSQSPSSLAVSLGEKVTINCKSGQSVLFTSNNKNYLAWYQQKPGQPPKLLISWASTRESGVPDRFSGSGSGTDFTLAISSVQAEDVAVYYCQQYYSPGPFTFGQGTKVEIK
OD值 (OD450 at 1:1280000 dilution): 0.5 OD | 效价 (ELISA titer) (dilution factor (1:x)): 1.28e+06

B2: 第二单克隆抗体 (second anti-OXA-48 enzyme monoclonal antibody) (antibody, V domains shown)
VH: EVQLVESGGGLVKPGGSLRLSCAASGFTFSGYWMHWVRQAPEKGLVWVAYINSDGSSTNYADSVKGRFTISRDNAKNTLFLQMNSLRAEDTAMYYCARGGGYSYGPFDYWGQGTSVTVSS
VL: QSVLTQPSSASTSPGSSVKLSCTGTSSDIGNNDYVSWYQQYMGRPPTNIIYDVSRRPSGVSDRFSGSIDRSSNTAFLTVNNVQADDEADYYCSSYAGSSNLVFGGGTKLTV
OD值 (OD450 at 1:1280000 dilution): > 0.5 OD | 效价 (ELISA titer) (dilution factor (1:x)): 1.28e+06
